Assay results from patent US20140087995A1 (published 2014).
Changes are numbered by the printed parent chain. Numbered stars: 1 amine (or outer) side, 2 acyl side, 3 side chain; on linkers, the order of the positions; unused ones are H or OH. Bridge positions count the residues as written; N and C are the ends. Side chains are listed from the residue outwards. Ends that are not written are not given here. * marks the point of attachment. C20 diacid = O=C(O)CCCCCCCCCCCCCCCCCCC(=O)*; γGlu = O=C(O)[C@H](CCC(=O)[*:2])N[*:1]; AEEA = NCCOCCOCC(=O)O

T1: human calcitonin receptor (human, UniProt P30988 25-474)
T1 sequence (looked up): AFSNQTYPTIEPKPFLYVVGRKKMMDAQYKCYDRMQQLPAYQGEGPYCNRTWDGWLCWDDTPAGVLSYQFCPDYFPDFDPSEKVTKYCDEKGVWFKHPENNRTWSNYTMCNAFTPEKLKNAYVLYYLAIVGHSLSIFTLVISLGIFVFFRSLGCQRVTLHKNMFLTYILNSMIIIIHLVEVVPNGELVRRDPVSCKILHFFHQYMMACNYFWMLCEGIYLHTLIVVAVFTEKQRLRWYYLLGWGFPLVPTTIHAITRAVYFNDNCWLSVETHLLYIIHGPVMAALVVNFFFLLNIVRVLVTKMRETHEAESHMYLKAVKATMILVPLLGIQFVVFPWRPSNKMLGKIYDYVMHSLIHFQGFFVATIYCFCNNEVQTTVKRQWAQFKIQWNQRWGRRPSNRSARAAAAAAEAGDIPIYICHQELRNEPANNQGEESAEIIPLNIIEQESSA

T2: human amylin 3(a) receptor (human calcitonin receptor co-expressed with RAMP-3) (human, UniProt P30988 25-474; O60896 24-148, limits assumed)
T2 sequence (looked up) 1: T1 sequence (looked up)
T2 sequence (looked up) 2: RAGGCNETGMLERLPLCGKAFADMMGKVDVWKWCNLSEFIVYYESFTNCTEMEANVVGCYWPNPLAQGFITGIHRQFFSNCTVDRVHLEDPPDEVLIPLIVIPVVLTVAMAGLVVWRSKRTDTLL

T3: human calcitonin receptor (human, UniProt P30988 25-474)
T3 sequence (looked up): T1 sequence (looked up)

B1: N^-1-[(4S)-4-carboxy-4-(19-carboxynonadecanoylamino)butanoyl]-Gly[Arg1,Ala14,Arg17,Pro21,Pro27,His34]-h-amylin (peptide)
peptide: {C20 diacid-γGlu}-GRCNTATCATQRLAAFLRHSSPNFGAIPSSTNVGHNTY-NH2
modifications: disulfide 3-8
SMILES: CC[C@H](C)[C@H](NC(=O)[C@H](C)NC(=O)CNC(=O)[C@H](Cc1ccccc1)NC(=O)[C@H](CC(N)=O)NC(=O)[C@@H]1CCCN1C(=O)[C@H](CO)NC(=O)[C@H](CO)NC(=O)[C@H](Cc1c[nH]cn1)NC(=O)[C@H](CCCNC(=N)N)NC(=O)[C@H](CC(C)C)NC(=O)[C@H](Cc1ccccc1)NC(=O)[C@H](C)NC(=O)[C@H](C)NC(=O)[C@H](CC(C)C)NC(=O)[C@H](CCCNC(=N)N)NC(=O)[C@H](CCC(N)=O)NC(=O)[C@@H](NC(=O)[C@H](C)NC(=O)[C@@H]1CSSC[C@H](NC(=O)[C@H](CCCNC(=N)N)NC(=O)CNC(=O)CC[C@H](NC(=O)CCCCCCCCCCCCCCCCCCC(=O)O)C(=O)O)C(=O)N[C@@H](CC(N)=O)C(=O)N[C@@H]([C@@H](C)O)C(=O)N[C@@H](C)C(=O)N[C@@H]([C@@H](C)O)C(=O)N1)[C@@H](C)O)C(=O)N1CCC[C@H]1C(=O)N[C@@H](CO)C(=O)N[C@@H](CO)C(=O)N[C@H](C(=O)N[C@@H](CC(N)=O)C(=O)N[C@H](C(=O)NCC(=O)N[C@@H](Cc1c[nH]cn1)C(=O)N[C@@H](CC(N)=O)C(=O)N[C@H](C(=O)N[C@@H](Cc1ccc(O)cc1)C(N)=O)[C@@H](C)O)C(C)C)[C@@H](C)O
B2: N{-1}-[(4S)-4-carboxy-4-(19-carboxynonadecanoylamino)butanoyl]-Gly[Arg1,His14,Arg17,Pro21,Pro27]-h-amylin (peptide)
peptide: {C20 diacid-γGlu}-GRCNTATCATQRLAHFLRHSSPNFGAIPSSTNVGSNTY-NH2
modifications: disulfide 3-8
SMILES: CC[C@H](C)[C@H](NC(=O)[C@H](C)NC(=O)CNC(=O)[C@H](Cc1ccccc1)NC(=O)[C@H](CC(N)=O)NC(=O)[C@@H]1CCCN1C(=O)[C@H](CO)NC(=O)[C@H](CO)NC(=O)[C@H](Cc1c[nH]cn1)NC(=O)[C@H](CCCNC(=N)N)NC(=O)[C@H](CC(C)C)NC(=O)[C@H](Cc1ccccc1)NC(=O)[C@H](Cc1c[nH]cn1)NC(=O)[C@H](C)NC(=O)[C@H](CC(C)C)NC(=O)[C@H](CCCNC(=N)N)NC(=O)[C@H](CCC(N)=O)NC(=O)[C@@H](NC(=O)[C@H](C)NC(=O)[C@@H]1CSSC[C@H](NC(=O)[C@H](CCCNC(=N)N)NC(=O)CNC(=O)CC[C@H](NC(=O)CCCCCCCCCCCCCCCCCCC(=O)O)C(=O)O)C(=O)N[C@@H](CC(N)=O)C(=O)N[C@@H]([C@@H](C)O)C(=O)N[C@@H](C)C(=O)N[C@@H]([C@@H](C)O)C(=O)N1)[C@@H](C)O)C(=O)N1CCC[C@H]1C(=O)N[C@@H](CO)C(=O)N[C@@H](CO)C(=O)N[C@H](C(=O)N[C@@H](CC(N)=O)C(=O)N[C@H](C(=O)NCC(=O)N[C@@H](CO)C(=O)N[C@@H](CC(N)=O)C(=O)N[C@H](C(=O)N[C@@H](Cc1ccc(O)cc1)C(N)=O)[C@@H](C)O)C(C)C)[C@@H](C)O
notes: also called compound 99
B3: N^-1-[(4S)-4-carboxy-4-(19-carboxynonadecanoylamino)butanoyl]-Gly[Arg1,His14,Arg17,Pro21,Pro27,Pro34]-h-amylin (peptide)
peptide: {C20 diacid-γGlu}-GRCNTATCATQRLAHFLRHSSPNFGAIPSSTNVGPNTY-NH2
modifications: disulfide 3-8
SMILES: CC[C@H](C)[C@H](NC(=O)[C@H](C)NC(=O)CNC(=O)[C@H](Cc1ccccc1)NC(=O)[C@H](CC(N)=O)NC(=O)[C@@H]1CCCN1C(=O)[C@H](CO)NC(=O)[C@H](CO)NC(=O)[C@H](Cc1c[nH]cn1)NC(=O)[C@H](CCCNC(=N)N)NC(=O)[C@H](CC(C)C)NC(=O)[C@H](Cc1ccccc1)NC(=O)[C@H](Cc1c[nH]cn1)NC(=O)[C@H](C)NC(=O)[C@H](CC(C)C)NC(=O)[C@H](CCCNC(=N)N)NC(=O)[C@H](CCC(N)=O)NC(=O)[C@@H](NC(=O)[C@H](C)NC(=O)[C@@H]1CSSC[C@H](NC(=O)[C@H](CCCNC(=N)N)NC(=O)CNC(=O)CC[C@H](NC(=O)CCCCCCCCCCCCCCCCCCC(=O)O)C(=O)O)C(=O)N[C@@H](CC(N)=O)C(=O)N[C@@H]([C@@H](C)O)C(=O)N[C@@H](C)C(=O)N[C@@H]([C@@H](C)O)C(=O)N1)[C@@H](C)O)C(=O)N1CCC[C@H]1C(=O)N[C@@H](CO)C(=O)N[C@@H](CO)C(=O)N[C@H](C(=O)N[C@@H](CC(N)=O)C(=O)N[C@H](C(=O)NCC(=O)N1CCC[C@H]1C(=O)N[C@@H](CC(N)=O)C(=O)N[C@H](C(=O)N[C@@H](Cc1ccc(O)cc1)C(N)=O)[C@@H](C)O)C(C)C)[C@@H](C)O
B4: N^-1-[(4S)-4-carboxy-4-(19-carboxynonadecanoylamino)butanoyl]-Gly[Arg1,Ala14,Arg17,Pro21,Pro27,Pro34]-h-amylin (peptide)
peptide: {C20 diacid-γGlu}-GRCNTATCATQRLAAFLRHSSPNFGAIPSSTNVGPNTY-NH2
modifications: disulfide 3-8
B5: N^α1-[2-[2-[2-[[2-[2-[2-[[(4S)-4-carboxy-4-(19-carboxynonadecanoylamino)butanoyl]amino]ethoxy]ethoxy]acetyl]amino]ethoxy]ethoxy]acetyl]-[Arg17,Pro21,Pro27]-h-am … (peptide)
peptide: KCNTATCATQRLANFLRHSSPNFGAIPSSTNVGSNTY
modifications: N-terminal alpha-amino acylated with C20 diacid-gGlu-2xOEG; Cys2-Cys7 disulfide; C-terminal amide
notes: analogue of human amylin; also called compound 24
B6: N^ε1-[2-[2-[2-[[2-[2-[2-[[(4S)-4-carboxy-4-(19-carboxynonadecanoylamino)butanoyl]amino]ethoxy]ethoxy]acetyl]amino]ethoxy]ethoxy]acetyl]-[Arg17,Pro21,Pro27,Glu35 … (peptide)
peptide: K([AEEA-AEEA-γGlu-C20 diacid])CNTATCATQRLANFLRHSSPNFGAIPSSTNVGSETY-NH2
modifications: disulfide 2-7; N-terminus assumed
SMILES: CC[C@H](C)[C@H](NC(=O)[C@H](C)NC(=O)CNC(=O)[C@H](Cc1ccccc1)NC(=O)[C@H](CC(N)=O)NC(=O)[C@@H]1CCCN1C(=O)[C@H](CO)NC(=O)[C@H](CO)NC(=O)[C@H](Cc1c[nH]cn1)NC(=O)[C@H](CCCNC(=N)N)NC(=O)[C@H](CC(C)C)NC(=O)[C@H](Cc1ccccc1)NC(=O)[C@H](CC(N)=O)NC(=O)[C@H](C)NC(=O)[C@H](CC(C)C)NC(=O)[C@H](CCCNC(=N)N)NC(=O)[C@H](CCC(N)=O)NC(=O)[C@@H](NC(=O)[C@H](C)NC(=O)[C@@H]1CSSC[C@H](NC(=O)[C@@H](N)CCCCNC(=O)COCCOCCNC(=O)COCCOCCNC(=O)CC[C@H](NC(=O)CCCCCCCCCCCCCCCCCCC(=O)O)C(=O)O)C(=O)N[C@@H](CC(N)=O)C(=O)N[C@@H]([C@@H](C)O)C(=O)N[C@@H](C)C(=O)N[C@@H]([C@@H](C)O)C(=O)N1)[C@@H](C)O)C(=O)N1CCC[C@H]1C(=O)N[C@@H](CO)C(=O)N[C@@H](CO)C(=O)N[C@H](C(=O)N[C@@H](CC(N)=O)C(=O)N[C@H](C(=O)NCC(=O)N[C@@H](CO)C(=O)N[C@@H](CCC(=O)O)C(=O)N[C@H](C(=O)N[C@@H](Cc1ccc(O)cc1)C(N)=O)[C@@H](C)O)C(C)C)[C@@H](C)O
notes: analogue of human amylin; also called compound 25
B7: N^α1-[(4S)-4-carboxy-4-(19-carboxynonadecanoylamino)butanoyl]-[His14,Arg17,Pro21,Pro27,Glu35]-h-amylin (peptide)
peptide: {C20 diacid-γGlu}-KCNTATCATQRLAHFLRHSSPNFGAIPSSTNVGSETY-NH2
modifications: disulfide 2-7
SMILES: CC[C@H](C)[C@H](NC(=O)[C@H](C)NC(=O)CNC(=O)[C@H](Cc1ccccc1)NC(=O)[C@H](CC(N)=O)NC(=O)[C@@H]1CCCN1C(=O)[C@H](CO)NC(=O)[C@H](CO)NC(=O)[C@H](Cc1c[nH]cn1)NC(=O)[C@H](CCCNC(=N)N)NC(=O)[C@H](CC(C)C)NC(=O)[C@H](Cc1ccccc1)NC(=O)[C@H](Cc1c[nH]cn1)NC(=O)[C@H](C)NC(=O)[C@H](CC(C)C)NC(=O)[C@H](CCCNC(=N)N)NC(=O)[C@H](CCC(N)=O)NC(=O)[C@@H](NC(=O)[C@H](C)NC(=O)[C@@H]1CSSC[C@H](NC(=O)[C@H](CCCCN)NC(=O)CC[C@H](NC(=O)CCCCCCCCCCCCCCCCCCC(=O)O)C(=O)O)C(=O)N[C@@H](CC(N)=O)C(=O)N[C@@H]([C@@H](C)O)C(=O)N[C@@H](C)C(=O)N[C@@H]([C@@H](C)O)C(=O)N1)[C@@H](C)O)C(=O)N1CCC[C@H]1C(=O)N[C@@H](CO)C(=O)N[C@@H](CO)C(=O)N[C@H](C(=O)N[C@@H](CC(N)=O)C(=O)N[C@H](C(=O)NCC(=O)N[C@@H](CO)C(=O)N[C@@H](CCC(=O)O)C(=O)N[C@H](C(=O)N[C@@H](Cc1ccc(O)cc1)C(N)=O)[C@@H](C)O)C(C)C)[C@@H](C)O
notes: analogue of human amylin; also called compound 30
B8: N^α1-[(4S)-4-carboxy-4-(19-carboxynonadecanoylamino)butanoyl]-[Arg17,Pro21,Pro27,His34]-h-amylin (peptide)
peptide: B5 peptide with S34H
modifications: N-terminal alpha-amino acylated with C20 diacid-gGlu; Cys2-Cys7 disulfide; C-terminal amide
notes: analogue of human amylin; also called compound 40
B9: N^α1-[2-[2-[2-[[2-[2-[2-[[(4S)-4-carboxy-4-(19-carboxynonadecanoylamino)butanoyl]amino]ethoxy]ethoxy]acetyl]amino]ethoxy]ethoxy]acetyl]-[Glu14,Arg17,Pro21,Pro27 … (peptide)
peptide: B5 peptide with N14E
modifications: N-terminal alpha-amino acylated with C20 diacid-gGlu-2xOEG; Cys2-Cys7 disulfide; C-terminal amide
notes: analogue of human amylin; also called compound 19
B10: N^α1-[(4S)-4-carboxy-4-(19-carboxynonadecanoylamino)butanoyl]-[Arg17,Pro21,Pro27,Arg34]-h-amylin (peptide)
peptide: B5 peptide with S34R
modifications: N-terminal alpha-amino acylated with C20 diacid-gGlu; Cys2-Cys7 disulfide; C-terminal amide
notes: analogue of human amylin; also called compound 39

These binders were tested against T1, human calcitonin receptor (assay: cell-based or functional assay).
In the case of B1, the “Ratio hCT/hAmylin funct.” value is reported as 4.9 and the “hCTR funct. EC50” value is reported as 0.537 nM.
For B2, the “Ratio hCT/hAmylin funct.” value was 10 and the “hCTR funct. EC50” value was 0.818 nM.
In the case of B3, the “Ratio hCT/hAmylin funct.” value is reported as 2.9 and the “hCTR funct. EC50” value is reported as 0.179 nM.
B4 was tested, and the “Ratio hCT/hAmylin funct.” value was 2.1 and the “hCTR funct. EC50” value was 0.148 nM.

The binders below were run against T2, human amylin 3(a) receptor (human …) (assay: cell-based or functional assay).
In the case of B1, the “hAmylin-R funct. EC50” value is reported as 0.109 nM.
For B2, the “hAmylin-R funct. EC50” value was 0.082 nM.
For B3, the “hAmylin-R funct. EC50” value was 0.062 nM.
For B4, the “hAmylin-R funct. EC50” value was 0.07 nM.

These binders were tested against T3, human calcitonin receptor (assay: cell-based or functional assay).
With B5 the “hCTR funct. EC50” value was 10 nM.
B6 was tested, and the “hCTR funct. EC50” value was 10 nM.
In the case of B7, the “Ratio hCT/hAmylin funct.” value is reported as 12.6 and the “hCTR funct. EC50” value is reported as 1.68 nM.
With B8 the “hCTR funct. EC50” value was 2.68 nM.
B9 was tested, and the “hCTR funct. EC50” value was 5.32 nM.
For B10, the “hCTR funct. EC50” value was 2.52 nM.
